# Molecular target: HLA-A*0201 molecule (human)
# Test: T2 cells loaded with 100 µM peptide, Brefeldin A, flow cytometry with BB7.2 at 0-8 h
# Conditions: remark: other sources report otherwise
binder,measurement,value
YEFLWGPRA [p262 (…)],DC50 (time for loss of 50% of the complexes),< 2 h

# Source: US20060263381A1
